The text below walks through data of US20210024646A1 (published 2021).

One may read the EC50 as the midpoint of the concentration-response curve. As a reminder, the IC50 is the concentration at which inhibition is half-maximal.

Experiment [1] addresses T1, extracellular domain of human CD73 protein (CD73-ECD), C-terminus polyhistidine-tagged (UniProt P21589 27-547).
T1 chain: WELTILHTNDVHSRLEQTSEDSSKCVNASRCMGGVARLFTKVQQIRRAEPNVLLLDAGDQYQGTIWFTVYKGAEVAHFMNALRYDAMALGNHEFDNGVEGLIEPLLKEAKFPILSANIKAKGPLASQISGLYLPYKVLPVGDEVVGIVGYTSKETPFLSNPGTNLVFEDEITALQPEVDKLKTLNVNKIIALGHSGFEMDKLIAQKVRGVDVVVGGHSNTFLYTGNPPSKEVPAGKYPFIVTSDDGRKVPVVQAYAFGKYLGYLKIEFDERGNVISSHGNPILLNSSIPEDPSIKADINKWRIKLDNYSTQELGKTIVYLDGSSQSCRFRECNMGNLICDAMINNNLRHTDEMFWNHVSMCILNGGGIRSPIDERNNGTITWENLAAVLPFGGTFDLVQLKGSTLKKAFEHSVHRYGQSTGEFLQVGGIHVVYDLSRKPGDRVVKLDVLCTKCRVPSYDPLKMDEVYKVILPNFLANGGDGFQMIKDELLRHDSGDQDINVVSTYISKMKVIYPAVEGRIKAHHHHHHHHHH
As to the kind of experiment: ELISA. In general terms: ELISA stands for enzyme-linked immunosorbent assay.

Experiment [2] deals with T1, extracellular domain of human CD73 …. As to the kind of experiment: enzyme inhibition; left table.
For experiment [3], the target named is T2, Carbon-terminal polyhistidine-labeled recombinant cynomolgus monkey CD73 enzyme (cynomolgus monkey, UniProt A0A2K5V5U7 1-547).
T2 chain: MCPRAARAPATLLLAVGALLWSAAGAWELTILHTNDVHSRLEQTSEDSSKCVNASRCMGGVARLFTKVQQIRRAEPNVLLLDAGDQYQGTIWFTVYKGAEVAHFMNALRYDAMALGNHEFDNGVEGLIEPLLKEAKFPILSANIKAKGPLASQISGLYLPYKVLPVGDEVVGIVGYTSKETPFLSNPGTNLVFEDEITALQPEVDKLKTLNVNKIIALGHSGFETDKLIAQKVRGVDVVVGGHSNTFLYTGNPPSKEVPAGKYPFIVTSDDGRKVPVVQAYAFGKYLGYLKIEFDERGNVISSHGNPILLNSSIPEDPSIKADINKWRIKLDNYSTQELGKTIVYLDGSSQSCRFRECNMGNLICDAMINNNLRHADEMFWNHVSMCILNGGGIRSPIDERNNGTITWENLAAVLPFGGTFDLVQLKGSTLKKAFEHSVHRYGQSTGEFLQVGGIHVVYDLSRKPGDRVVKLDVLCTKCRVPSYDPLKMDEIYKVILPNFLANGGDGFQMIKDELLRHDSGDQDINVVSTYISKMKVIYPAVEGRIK
As to the kind of experiment: enzyme inhibition; left table.

Experiment [4] has as its target T1, extracellular domain of human CD73 …. As to the kind of experiment: enzyme inhibition; right table.
The target of experiment [5] is T2, Carbon-terminal polyhistidine-labeled …. The experiment is described as follows: enzyme inhibition; right table.
The target of experiment [6] is T3, CD73 on the surface of human tumor cells (human, UniProt P21589 27-549).
T3 chain: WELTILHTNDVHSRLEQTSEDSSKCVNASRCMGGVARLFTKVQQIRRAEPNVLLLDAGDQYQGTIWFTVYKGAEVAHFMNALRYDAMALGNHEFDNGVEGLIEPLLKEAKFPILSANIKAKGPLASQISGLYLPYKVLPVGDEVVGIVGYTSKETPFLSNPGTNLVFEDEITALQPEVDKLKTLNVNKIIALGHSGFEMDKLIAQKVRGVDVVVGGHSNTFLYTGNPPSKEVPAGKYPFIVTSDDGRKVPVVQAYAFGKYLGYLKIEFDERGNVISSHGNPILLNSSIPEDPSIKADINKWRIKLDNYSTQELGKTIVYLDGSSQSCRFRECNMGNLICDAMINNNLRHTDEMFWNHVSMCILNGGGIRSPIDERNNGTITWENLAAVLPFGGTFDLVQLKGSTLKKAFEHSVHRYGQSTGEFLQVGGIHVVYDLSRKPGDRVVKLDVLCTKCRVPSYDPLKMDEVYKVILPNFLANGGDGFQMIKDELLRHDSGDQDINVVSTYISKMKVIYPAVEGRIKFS
The experiment is described as follows: FACS; NCI-H1299 cells, right table. In general terms: Flow cytometry measures light scatter and fluorescence of single cells or particles in a stream.

Experiment [7] addresses T3, CD73 on the surface of human tumor cells. As to the kind of experiment: FACS; MDA-MB-231 cells, right table.
Experiment [8] shares this target. The experiment is described as follows: inhibition of cell-surface CD73 enzyme activity; right panel.
For experiment [9] the target is unchanged. As to the kind of experiment: FACS; NCI-H1299 cells, left table.
Experiment [10] has the same target. As to the kind of experiment: FACS; MDA-MB-231 cells, left table.
The target is the same in experiment [11]. The experiment is described as follows: inhibition of cell-surface CD73 enzyme activity; left panel.

B1: Hu001c-15 (antibody, V domains shown)
VH: QVQLVQSGAEVKKPGASVKVSCKTSGYTFTNYYIYWVRQAPGQRLEWMGWIYPGNLNIKYNEKFKGRVTITADTSASTAYMELSSLRSEDTAVYYCARDDNYAWFAYWGQGTLVTVSS
VL: DIQMTQSPSSLSASVGDRVTITCKASQDVSTAVAWYQQKPGKSPKLLIYWTNTRHTGVPSRFSGSGSGTDHTLTISSLQPEDFATYYCQQHYSTPFTFGQGTKLEIK
In the case of B1, the midpoint of the response in [1], the EC50, lay at 0.115 nM. For the same molecule, the IC50 in experiment [2] turned out to be 0.04 nM; in experiment [3], 0.1 nM; in experiment [4], 0.02 nM; in experiment [5], 0.05 nM.

B2: Hu002c-16 (antibody, V domains shown)
VH: QVQLVQSGAEVKKPGASVKVSCKASGYTLTSYWMHWVKKAPGQGLEWIGEINPSQGRSNYNEKFKSKVTLTVDRSTSTVYMELSSLRSEDTAVYYCARRGVSGNYFDYWGQGTLVTVSS
VL: DIQMTQSPSSLSASVGDRVTITCKASQDINTYLSWFQQKPGKSPKSLIYRSNILVSGVPSRFSGSGSGQDYTLTISSLQPEDFAIYYCLQYDEFPYTFGGGTKLEI
B2: the 50% effective concentration (EC50) in experiment [1] amounted to 0.099 nM; in experiment [6], 0.86 nM; in experiment [7], 0.632 nM. Also, the 50% inhibitory concentration (IC50) in experiment [4] came out at 0.068 nM; in experiment [5], 0.072 nM; in experiment [8] it was 0.327 nM.

B3: Hu002c-4 (antibody, V domains shown)
VH: QVQLVQSGAEVKKPGASVKVSCKASGYTLTSYWMHWVRQAPGQGLEWMGEINPSQGRSNYNEKFKSRVTMTRDTSTSTVYMELSSLRSEDTAVYYCARRGVSGNYFDYWGQGTLVTVSS
VL: DIQMTQSPSSLSASVGDRVTITCKASQDINTYLSWFQQKPGKSPKSLIYRSNILVSGVPSRFSGSGSGQDYTLTISSLQPEDFAIYYCLQYDEFPYTFGGGTKLEI
B3: the concentration giving a half-maximal response (EC50) in experiment [1] stood at 0.106 nM; in experiment [9] it was 0.873 nM; in experiment [10] it was 0.696 nM. Moreover, the IC50 in [2] was 0.049 nM; in [3], 0.047 nM; in [11] it was 0.33 nM.

B4: Hu002c-3 (antibody, V domains shown)
VH: QVQLVQSGAEVKKPGASVKVSCKASGYTLTSYWMHWVRQAPGQGLEWMGEINPSQGRSNYNEKFKSRVTMTRDTSTSTVYMELSSLRSEDTAVYYCARRGVSGNYFDYWGQGTLVTVSS
VL: DIQMTQSPSSLSASVGDRVTITCKASQDINTYLSWFQQKPGKSPKSLIYRSNILVSGVPSRFSGSGSGQDYTLTISSLQPEDFATYYCLQYDEFPYTFGGGTKLEIK
B4: the EC50 in experiment [1] was determined as 0.089 nM; in [9], 0.902 nM; in [10] it was 0.743 nM. In addition, the values for the IC50 in [2], in experiment [3] and in [11] were 0.036 nM, 0.046 nM and 0.535 nM, respectively.

B5: Hu002c-7 (antibody, V domains shown)
VH: QVQLVQSGAEVKKPGASVKVSCKASGYTLTSYWMHWVRQAPGQGLEWIGEINPSQGRSNYNEKFKSRVTLTVDRSTSTVYMELSSLRSEDTAVYYCARRGVSGNYFDYWGQGTLVTVSS
VL: DIQMTQSPSSLSASVGDRVTITCKASQDINTYLSWFQQKPGKSPKSLIYRSNILVSGVPSRFSGSGSGQDYTLTISSLQPEDFATYYCLQYDEFPYTFGGGTKLEIK
Turning to B5, the EC50 came to 0.098 nM in [1], 0.829 nM in experiment [9] and 0.659 nM in [10]. Moreover, the IC50 in experiment [2] is 0.028 nM; in experiment [3], 0.052 nM; in experiment [11] it was 0.279 nM.

B6: Hu002c-2 (antibody, V domains shown)
VH: QVQLVQSGAEVKKPGASVKVSCKASGYTLTSYWMHWVRQAPGQGLEWMGEINPSQGRSNYNEKFKSRVTMTRDTSTSTVYMELSSLRSEDTAVYYCARRGVSGNYFDYWGQGTLVTVSS
VL: DIQMTQSPSSLSASVGDRVTITCKASQDINTYLSWFQQKPGKAPKSLIYRSNILVSGVPSRFSGSGSGQDYTLTISSLQPEDFATYYCLQYDEFPYTFGQGTKLEIK
As to B6, the concentration for a half-maximal effect (EC50) in experiment [1] is 0.131 nM; in experiment [9] it was 0.874 nM; in experiment [10], 0.666 nM. For the same molecule, the IC50 worked out at 0.042 nM in experiment [2], 0.043 nM in experiment [3] and 0.478 nM in experiment [11].

B7: Hu002c-15 (antibody, V domains shown)
VH: QVQLVQSGAEVKKPGASVKVSCKASGYTLTSYWMHWVKKAPGQGLEWIGEINPSQGRSNYNEKFKSKVTLTVDRSTSTVYMELSSLRSEDTAVYYCARRGVSGNYFDYWGQGTLVTVSS
VL: DIQMTQSPSSLSASVGDRVTITCKASQDINTYLSWFQQKPGKSPKSLIYRSNILVSGVPSRFSGSGSGQDYTLTISSLQPEDFATYYCLQYDEFPYTFGGGTKLEIK
On to B7, for which the EC50 is 0.104 nM in [1], 0.804 nM in experiment [6] and 0.717 nM in experiment [7]. Also, the concentration for half-maximal inhibition (IC50) in experiment [4] was determined as 0.075 nM; in experiment [5], 0.074 nM; in experiment [8], 0.591 nM.

B8: Hu002c-8 (antibody, V domains shown)
VH: QVQLVQSGAEVKKPGASVKVSCKASGYTLTSYWMHWVRQAPGQGLEWIGEINPSQGRSNYNEKFKSRVTLTVDRSTSTVYMELSSLRSEDTAVYYCARRGVSGNYFDYWGQGTLVTVSS
VL: DIQMTQSPSSLSASVGDRVTITCKASQDINTYLSWFQQKPGKSPKSLIYRSNILVSGVPSRFSGSGSGQDYTLTISSLQPEDFAIYYCLQYDEFPYTFGGGTKLEI
For the molecule B8, the half-maximal effective concentration (EC50) in [1] was determined as 0.107 nM; in experiment [9] it was 0.91 nM; in experiment [10] it was 0.662 nM. Also, the IC50 in [2] worked out at 0.025 nM; in experiment [3] it was 0.041 nM; in experiment [11], 0.223 nM.

B9: Hu002c-6 (antibody, V domains shown)
VH: QVQLVQSGAEVKKPGASVKVSCKASGYTLTSYWMHWVRQAPGQGLEWIGEINPSQGRSNYNEKFKSRVTLTVDRSTSTVYMELSSLRSEDTAVYYCARRGVSGNYFDYWGQGTLVTVSS
VL: DIQMTQSPSSLSASVGDRVTITCKASQDINTYLSWFQQKPGKAPKSLIYRSNILVSGVPSRFSGSGSGQDYTLTISSLQPEDFATYYCLQYDEFPYTFGQGTKLEIK
With B9, the half-maximal effective concentration (EC50) amounted to 0.091 nM in [1], 0.836 nM in experiment [9] and 0.69 nM in experiment [10]. For the same molecule, the IC50 was found to be 0.064 nM in experiment [2], 0.055 nM in experiment [3] and 0.41 nM in experiment [11].
